Measured values from patent US20170158742A1.
“And” between values parts separate entries of the source, which are not always exact repeats. Equal values may be shown once.

Columns and labels:
[1] = target: NIMA (never in mitosis gene a)-related kinase 7 (human) (UniProt Q8TDX7)
[2] = target: CDKN2A interacting protein (human) (UniProt Q9NXV6)
[3] = target: WAS/WASL interacting protein family, member 1 (human) (UniProt O43516)
[4] = target: SLAIN motif family, member 2 (human) (UniProt Q9P270)
[5] = target: Checkpoint suppressor 1/Forkhead box N3 (human) (UniProt O00409)
Sequence of Checkpoint suppressor 1/Forkhead box N3 (human) (O00409 other isoform, or with tags, fused parts or gaps limits assumed): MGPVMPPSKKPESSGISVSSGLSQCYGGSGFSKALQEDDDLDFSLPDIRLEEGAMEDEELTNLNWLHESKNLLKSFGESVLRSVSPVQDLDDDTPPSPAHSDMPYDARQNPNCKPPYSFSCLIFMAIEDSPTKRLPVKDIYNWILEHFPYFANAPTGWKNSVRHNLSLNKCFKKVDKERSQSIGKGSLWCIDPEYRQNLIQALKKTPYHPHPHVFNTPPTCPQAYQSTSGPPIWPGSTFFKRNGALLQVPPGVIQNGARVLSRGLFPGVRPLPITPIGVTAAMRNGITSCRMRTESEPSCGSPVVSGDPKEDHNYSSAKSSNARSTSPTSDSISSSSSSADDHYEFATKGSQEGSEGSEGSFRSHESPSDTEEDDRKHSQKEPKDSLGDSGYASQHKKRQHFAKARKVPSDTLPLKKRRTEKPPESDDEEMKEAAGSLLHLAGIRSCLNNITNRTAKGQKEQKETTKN

[6] = target: Piccolo (presynaptic cytomatrix protein) (human) (UniProt Q9Y6V0)
Sequence of Piccolo (presynaptic cytomatrix protein) (human) (Q9Y6V0 other isoform, or with tags, fused parts or gaps limits assumed): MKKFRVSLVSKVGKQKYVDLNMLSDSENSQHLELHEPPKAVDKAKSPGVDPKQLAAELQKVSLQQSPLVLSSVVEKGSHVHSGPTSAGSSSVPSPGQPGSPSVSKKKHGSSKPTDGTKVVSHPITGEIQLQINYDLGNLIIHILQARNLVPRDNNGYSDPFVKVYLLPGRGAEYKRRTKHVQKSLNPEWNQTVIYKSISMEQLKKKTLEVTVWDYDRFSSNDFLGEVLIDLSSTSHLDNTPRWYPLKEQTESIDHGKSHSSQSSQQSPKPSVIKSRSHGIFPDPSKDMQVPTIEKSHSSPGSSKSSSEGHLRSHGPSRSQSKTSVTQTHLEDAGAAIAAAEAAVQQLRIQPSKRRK

Cyclin B3 (human) = Cyclin B3 (human) (UniProt Q8WWL7)
[7] = target: Choline kinase alpha (human) (UniProt P35790)
Sequence of Choline kinase alpha (human) (P35790 whole entry): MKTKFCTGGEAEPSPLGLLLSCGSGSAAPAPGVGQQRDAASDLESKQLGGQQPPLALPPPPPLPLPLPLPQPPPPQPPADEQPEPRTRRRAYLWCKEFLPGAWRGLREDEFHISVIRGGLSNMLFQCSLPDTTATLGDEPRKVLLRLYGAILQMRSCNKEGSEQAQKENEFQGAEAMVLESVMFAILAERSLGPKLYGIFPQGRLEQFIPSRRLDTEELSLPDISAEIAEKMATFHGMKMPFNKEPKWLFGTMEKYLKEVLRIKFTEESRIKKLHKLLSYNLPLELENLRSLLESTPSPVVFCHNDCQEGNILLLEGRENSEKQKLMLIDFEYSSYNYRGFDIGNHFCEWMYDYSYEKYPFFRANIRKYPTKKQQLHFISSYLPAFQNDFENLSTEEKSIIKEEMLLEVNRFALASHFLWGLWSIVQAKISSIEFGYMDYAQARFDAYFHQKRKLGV

[8] = target: Microtubule-associated protein 2 (human) (UniProt P11137)
Cortactin (human) = Cortactin (human) (UniProt Q14247)
Sequence of Cortactin (human) (Q14247 other isoform, or with tags, fused parts or gaps limits assumed): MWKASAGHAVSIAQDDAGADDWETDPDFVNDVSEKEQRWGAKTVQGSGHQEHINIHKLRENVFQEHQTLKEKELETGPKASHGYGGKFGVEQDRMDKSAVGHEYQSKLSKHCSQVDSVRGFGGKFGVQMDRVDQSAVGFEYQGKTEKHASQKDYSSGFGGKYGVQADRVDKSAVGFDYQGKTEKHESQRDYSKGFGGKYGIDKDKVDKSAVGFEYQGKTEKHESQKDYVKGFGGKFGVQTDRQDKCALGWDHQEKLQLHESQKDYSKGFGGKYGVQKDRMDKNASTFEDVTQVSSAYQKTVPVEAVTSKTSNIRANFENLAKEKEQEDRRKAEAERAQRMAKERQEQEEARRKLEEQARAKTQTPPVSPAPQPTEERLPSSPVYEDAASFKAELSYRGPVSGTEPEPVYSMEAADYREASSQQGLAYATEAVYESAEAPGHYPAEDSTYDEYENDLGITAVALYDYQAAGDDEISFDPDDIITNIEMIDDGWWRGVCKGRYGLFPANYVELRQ

[9] = target: Nuclear speckle splicing regulatory protein 1 (human) (UniProt Q9H0G5)
[10] = target: p 53-regulated DDA3 (DDA3)/proline/serine-rich coiled-coil 1 (human) (UniProt Q6PGN9)
[11] = target: Calcium/calmodulin-dependent protein kinase II alpha (human) (UniProt Q9UQM7)
Sequence of Calcium/calmodulin-dependent protein kinase II alpha (human) (Q9UQM7 whole entry): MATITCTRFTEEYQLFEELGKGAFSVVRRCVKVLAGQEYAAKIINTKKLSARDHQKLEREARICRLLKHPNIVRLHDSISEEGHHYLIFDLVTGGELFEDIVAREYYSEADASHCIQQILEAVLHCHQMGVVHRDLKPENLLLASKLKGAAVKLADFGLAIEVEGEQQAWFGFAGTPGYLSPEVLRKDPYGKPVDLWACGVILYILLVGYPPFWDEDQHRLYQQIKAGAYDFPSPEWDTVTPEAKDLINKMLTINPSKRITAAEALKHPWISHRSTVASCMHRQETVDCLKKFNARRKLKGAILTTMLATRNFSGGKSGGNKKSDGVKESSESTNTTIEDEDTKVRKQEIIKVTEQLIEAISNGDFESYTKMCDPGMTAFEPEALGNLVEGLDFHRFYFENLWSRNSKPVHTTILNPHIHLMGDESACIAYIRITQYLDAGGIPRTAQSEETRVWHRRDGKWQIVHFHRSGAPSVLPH

[12] = target: Immunoglobulin (CD79A) binding protein 1 (human) (UniProt P78318)
[13] = target: Eukaryotic translation initiation factor 1 A, Y-linked (human) (UniProt O14602)
Sequence of Eukaryotic translation initiation factor 1 A, Y-linked (human) (O14602 whole entry): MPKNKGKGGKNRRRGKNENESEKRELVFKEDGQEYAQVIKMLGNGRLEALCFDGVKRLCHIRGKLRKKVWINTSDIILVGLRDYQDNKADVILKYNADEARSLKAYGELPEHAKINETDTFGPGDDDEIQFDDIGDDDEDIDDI

[14] = target: Vaccinia related kinase 1 (human) (UniProt Q99986)
[15] = target: WD repeat domain 5 (human) (UniProt P61964)
[16] = target: Ubiquitin-conjugating enzyme E2S (human) (UniProt Q16763)
Sequence of Ubiquitin-conjugating enzyme E2S (human) (Q16763 whole entry): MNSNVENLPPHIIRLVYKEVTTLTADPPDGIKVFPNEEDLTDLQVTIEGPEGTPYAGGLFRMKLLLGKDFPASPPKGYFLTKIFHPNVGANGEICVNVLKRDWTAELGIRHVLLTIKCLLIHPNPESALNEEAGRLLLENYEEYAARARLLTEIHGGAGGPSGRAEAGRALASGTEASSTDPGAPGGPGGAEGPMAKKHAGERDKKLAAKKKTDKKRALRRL

[17] = target: Calcium channel, voltage-dependent, beta 1 subunit (human) (UniProt Q02641)
Sequence of Calcium channel, voltage-dependent, beta 1 subunit (human) (Q02641 whole entry): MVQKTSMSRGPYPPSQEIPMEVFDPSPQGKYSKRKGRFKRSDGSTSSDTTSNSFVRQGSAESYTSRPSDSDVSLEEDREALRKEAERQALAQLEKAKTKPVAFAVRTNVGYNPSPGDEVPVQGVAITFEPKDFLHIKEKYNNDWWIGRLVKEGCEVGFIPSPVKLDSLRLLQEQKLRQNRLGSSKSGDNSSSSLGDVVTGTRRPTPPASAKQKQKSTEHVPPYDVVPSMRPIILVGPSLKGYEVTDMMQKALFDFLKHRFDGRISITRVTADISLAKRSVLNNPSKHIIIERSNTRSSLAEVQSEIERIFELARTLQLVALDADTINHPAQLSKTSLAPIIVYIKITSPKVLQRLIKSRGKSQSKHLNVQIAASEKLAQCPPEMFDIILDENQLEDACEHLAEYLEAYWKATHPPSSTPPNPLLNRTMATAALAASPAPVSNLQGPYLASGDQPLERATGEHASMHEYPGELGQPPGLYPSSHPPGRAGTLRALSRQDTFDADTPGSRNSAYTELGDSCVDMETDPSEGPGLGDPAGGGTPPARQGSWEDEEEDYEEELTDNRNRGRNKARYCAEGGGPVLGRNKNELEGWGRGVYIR

[18] = target: Protein kinase C, iota (human) (UniProt P41743)
[19] = target: Elongation factor 1 homolog (ELF1, S. cerevisiae) (human) (UniProt P60002)
[20] = target: Potassium channel tetramerisation domain containing 18 (human) (UniProt Q6PI47)
Sequence of Potassium channel tetramerisation domain containing 18 (human) (Q6PI47 whole entry, the tested form may be a part): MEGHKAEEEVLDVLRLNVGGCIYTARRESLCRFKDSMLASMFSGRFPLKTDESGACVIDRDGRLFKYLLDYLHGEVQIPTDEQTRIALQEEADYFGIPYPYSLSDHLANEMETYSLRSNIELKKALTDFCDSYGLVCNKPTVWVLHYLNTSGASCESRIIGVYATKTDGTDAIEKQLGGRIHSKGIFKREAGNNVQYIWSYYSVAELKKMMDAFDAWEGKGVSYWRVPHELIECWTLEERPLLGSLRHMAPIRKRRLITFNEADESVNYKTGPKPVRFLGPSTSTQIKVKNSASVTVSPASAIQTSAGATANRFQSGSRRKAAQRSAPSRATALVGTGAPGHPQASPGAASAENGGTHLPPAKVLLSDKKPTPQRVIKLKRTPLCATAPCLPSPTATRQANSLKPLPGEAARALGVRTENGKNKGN

[21] = target: AF4/FMR2 family, member 4 (human) (UniProt Q9UHB7)
Sequence of AF4/FMR2 family, member 4 (human) (Q9UHB7 other isoform, or with tags, fused parts or gaps limits assumed): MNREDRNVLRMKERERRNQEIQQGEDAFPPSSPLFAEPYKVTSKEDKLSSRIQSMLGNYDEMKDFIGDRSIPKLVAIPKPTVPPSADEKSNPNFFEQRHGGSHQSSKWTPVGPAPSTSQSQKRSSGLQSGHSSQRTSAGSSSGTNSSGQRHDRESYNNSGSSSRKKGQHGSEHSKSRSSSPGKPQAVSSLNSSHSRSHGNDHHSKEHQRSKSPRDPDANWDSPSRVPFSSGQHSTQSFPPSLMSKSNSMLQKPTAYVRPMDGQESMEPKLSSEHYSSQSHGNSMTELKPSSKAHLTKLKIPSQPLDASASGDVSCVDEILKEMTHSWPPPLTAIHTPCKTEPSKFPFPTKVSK

[22] = target: Rtf1, Paf1/RNA polymerase II complex component, homolog (S. cerevisiae) (human) (UniProt Q92541)
[23] = target: DIM1 dimethyladenosine transferase 1 homolog (S. cerevisiae) (human) (UniProt Q9UNQ2)
[24] = target: RAD51 associated protein 1 (human) (UniProt Q96B01)
[25] = target: Additional sex combs like 1 (Drosophila) (human) (UniProt Q8IXJ9)
Aurora kinase A (human) = Aurora kinase A (human) (UniProt O14965)
Sequence of Aurora kinase A (human) (O14965 whole entry): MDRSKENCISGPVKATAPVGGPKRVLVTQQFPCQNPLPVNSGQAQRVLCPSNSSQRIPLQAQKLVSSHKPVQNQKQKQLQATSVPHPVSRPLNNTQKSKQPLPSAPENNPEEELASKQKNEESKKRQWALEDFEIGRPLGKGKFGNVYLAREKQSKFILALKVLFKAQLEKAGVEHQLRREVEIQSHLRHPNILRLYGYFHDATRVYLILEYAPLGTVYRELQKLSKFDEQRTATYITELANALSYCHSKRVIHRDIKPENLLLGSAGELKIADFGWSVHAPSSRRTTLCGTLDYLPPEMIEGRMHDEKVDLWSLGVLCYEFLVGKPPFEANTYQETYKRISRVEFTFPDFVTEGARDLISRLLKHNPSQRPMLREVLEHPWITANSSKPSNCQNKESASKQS

[26] = target: Signal recognition particle 19kDa (human) (UniProt P09132)
Sequence of Signal recognition particle 19kDa (human) (P09132 whole entry): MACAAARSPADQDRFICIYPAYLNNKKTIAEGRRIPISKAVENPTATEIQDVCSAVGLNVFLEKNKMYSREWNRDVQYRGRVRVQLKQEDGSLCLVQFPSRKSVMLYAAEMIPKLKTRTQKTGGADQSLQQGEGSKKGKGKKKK

[27] = target: Eukaryotic translation initiation factor 1 A, X-linked (human) (UniProt P47813)

Sequence of NIMA (never in mitosis gene a)-related kinase 7 (human) (Q8TDX7 whole entry): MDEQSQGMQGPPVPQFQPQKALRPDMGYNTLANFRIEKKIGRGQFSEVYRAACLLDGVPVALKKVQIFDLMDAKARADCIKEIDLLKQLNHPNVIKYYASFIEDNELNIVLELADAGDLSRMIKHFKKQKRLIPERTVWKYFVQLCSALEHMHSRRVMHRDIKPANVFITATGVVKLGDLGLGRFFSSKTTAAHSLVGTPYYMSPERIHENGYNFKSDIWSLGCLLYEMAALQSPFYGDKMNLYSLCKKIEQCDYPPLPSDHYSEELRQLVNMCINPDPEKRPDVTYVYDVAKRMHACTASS

“biotinylated full-length Dengue virus capsid (DENV C) protein” was tested, and the Signal Intensity [1] was 918, the Z-score [1] was 3.49 and the Signal Intensity [2] was 1030. It also gave a Z-score [2] of 4.01, a Signal Intensity [3] of 1160 and a Z-score [3] of 4.59. It also gave a Signal Intensity [4] of 2570, a Z-score [4] of 11.1 and a Signal Intensity [5] of 918. For the same substance, the Z-score [5] was 3.48, the Signal Intensity [6] was 929 and the Z-score [6] was 3.53. It also gave a Signal Intensity (Cyclin B3 (human)) of 854, a Z-score (Cyclin B3 (human)) of 3.19 and a Signal Intensity [7] of 1740. It also gave a Z-score [7] of 7.26, a Signal Intensity [8] of 875 and a Z-score [8] of 3.29. It also gave a Signal Intensity (Cortactin (human)) of 3080, a Z-score (Cortactin (human)) of 13.4 and a Signal Intensity [9] of 928. It also gave a Z-score [9] of 3.53, a Signal Intensity [10] of 822 and a Z-score [10] of 3.04. The Signal Intensity [11] was 969, the Z-score [11] was 3.72 and the Signal Intensity [12] was 1940. For the same substance, the Z-score [12] was 8.18, the Signal Intensity [13] was 852 and the Z-score [13] was 3.18. For the same substance, the Signal Intensity [14] was 845, the Z-score [14] was 3.15 and the Signal Intensity [15] was 840. It also gave a Z-score [15] of 3.13, a Signal Intensity [16] of 1350 and a Z-score [16] of 5.49. The Signal Intensity [17] was 1020, the Z-score [17] was 3.94 and the Signal Intensity [18] was 841. For the same substance, the Z-score [18] was 3.13, the Signal Intensity [19] was 816 and the Z-score [19] was 3.02. The Signal Intensity [20] was 856, the Z-score [20] was 3.2 and the Signal Intensity [21] was 1250. The Z-score [21] was 5.02, the Signal Intensity [22] was 882 and the Z-score [22] was 3.32. The Signal Intensity [23] was 1670, the Z-score [23] was 6.93 and the Signal Intensity [24] was 1140. The Z-score [24] was 4.52, the Signal Intensity [25] was 1070 and the Z-score [25] was 4.19. For the same substance, the Signal Intensity (Aurora kinase A (human)) was 1160, the Z-score (Aurora kinase A (human)) was 4.59 and the Signal Intensity [26] was 972 and 818. For the same substance, the Z-score [26] was 3.73 and 3.02.

“biotinylated full-length Dengue virus capsid (DENV C) protein (other; other documents disagree on this pair)” showed a Signal Intensity [27] of 997 and a Z-score [27] of 3.85.
